Patent US20220372114A1 (CURIA IP, published 2022)
Residue numbers refer to the chain shown, from its start. “And” between values parts separate entries of the source, which are not always exact repeats. Equal entries are not always repeated.

B1: 4-K13-A (antibody, V domains shown)
VH: QAYLQQSGAELVRPGASVKMSCKASGYTFTSYTVHWVKQTPRQGLEWIGAIYPGNVDTSYNQNFKGKATLTVDKSSSTAYMQLSSLTSEDSAVYFCARDGYYAMDYWGQGTSVTVSS
VL: not shown
B2: 7-B10-A (antibody, V domains shown)
VH: EVQLVESGGGLVQPKGSLKLSCAASGFTFNTYAMHWVRQAPGKGLEWVARIRSKSSNYARYYADSVKDRFTISRDESQSMLYLQMNNLKTEDTAMYYCVRDHDYYGSSYWFAYWGQGTLVTVSA
VL: DVVMTQTPLSLPVSLGDQASISCSSSQSLVHNNGNTYLHWYLQKPGQSPKLLIYKVSNRFSGVPDRFSGSGSGTDFTLKISRVEAEDLGVYFCSQSTHVPWTFGGGTKLEIK
B3: 10-B13-A (human Fc IgG2 chimera) (antibody, V domains shown)
VH: QVQLQQSGAELVKPGASVKISCKASGYAFSNYWMNWVKQRPGKGLEWIGQIYPGDGDTNYNGNFKGKATLTADKSSSTAYIQLSSLTSEDSAVYFCGRGFIATVVEVFDHWGLGTTLTVSS
VL: DIQMTQTTSSLSASLGDRVTISCRASQDISNYLNWYQQKPDGTVKLLIYYTSRLQSGVPSRFSGSGTGTDYSLTISNLEQEDIATYFCQQGNTLPWTFGGGTKLEIK
B4: 5-P24-A (antibody, V domains shown)
VH: QAYLQQSGAELVRPGASVKMSCKASGYTFTSYSMHWVKQTPRQGLEWIGAIYPGNGDTSYTQKFKGKATLTVDKSSSTAYMQLSSLTSEDSAVYFCARDYSNYPFDYWGQGTTLTVSS
VL: not shown
B5: 10-L12-A (antibody, V domains shown)
VH: B4 VH with T61N, A97T
VL: DIVLTQSPASLAVSLGQRATISCRASKSVSTSGYSYLHWYQQKPGQPPKLLIYLASNLESGVPARFSGSGSGTDFTLNIHPVEEEDAATYYCQHSRELPPTFGGGTKLEIK

Assays:
[1] = biological target: SARS-CoV-2 (WIV02 isolate) prefusion stabilized spike trimer protein (SARS-CoV-2 (WIV02 isolate), UniProt P0DTC2 14-1213); test: ELISA
[2] = biological target: SARS-CoV-2 spike protein on live wild-type virus (SARS-CoV-2, UniProt P0DTC2 14-1273); test: cell-based or functional assay

| Binder | binding result [1] | IC50, BSL3 Vero E6 infection plaque assay [2] |
| --- | --- | --- |
| B1 | binds | – |
| B2 | binds | – |
| B3 | – | 0.21 µg/mL and 1.4 nM |
| B4 | binds | – |
| B5 | binds | – |
